The text below walks through data of paper PMC8829827, “Dynamics of Cations around DNA and Protein as Revealed by 23Na Diffusion NMR Spectroscopy”.

This series deals with Antp homeodomain (C39S) (fruit fly, UniProt P02833 297-356, C335S). Put plainly: 23Na diffusion NMR (Na+ release on complex formation); 1.10 mM protein, 1.52 mM DNA; 14.7 +/- 1.7 Na+ released per complex; sodium succinate buffer (20 mM Na+, 11.3 mM succinate), pH 5.8, 25 C. The conditions noted are these: protein: recombinant; blunt.
Antp homeodomain (C39S), sequence (P02833 297-356 C335S): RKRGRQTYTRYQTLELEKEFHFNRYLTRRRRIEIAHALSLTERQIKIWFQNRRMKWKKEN

B1: 15-bp DNA duplex with Antp recognition sequence (dsDNA)
DNA 1: AGAAAGCCATTAGAG
DNA 2: CTCTAATGGCTTTCT
Turning to B1, the binding result is on record as “binds”.
